Experimental data: patent publication US20250282887A1 (Amgen, published 2025)
Positions count from the first letter of the chain named.

T1: Human MAGEB2 (Melanoma-associated antigen B2) (human, UniProt O15479 1-319)
T1 construct: Intracellular antigen detected by IHC in FFPE material: CHO cells transfected with human MAGEB2 (mCherry vector with Myc/DDK tags, or ORF without tags)
T1 sequence: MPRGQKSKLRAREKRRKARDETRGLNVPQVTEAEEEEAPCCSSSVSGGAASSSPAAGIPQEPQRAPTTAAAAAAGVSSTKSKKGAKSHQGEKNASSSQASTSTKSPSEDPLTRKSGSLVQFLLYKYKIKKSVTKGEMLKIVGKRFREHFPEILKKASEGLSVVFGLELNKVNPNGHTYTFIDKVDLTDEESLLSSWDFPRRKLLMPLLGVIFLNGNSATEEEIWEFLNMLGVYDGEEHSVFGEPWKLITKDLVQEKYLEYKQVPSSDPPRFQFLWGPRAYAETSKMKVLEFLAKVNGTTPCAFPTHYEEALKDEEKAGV

T2: huMAGEB2(1-319), biotinylated full length MAGEB2 protein (human, UniProt O15479 1-319, biotinylated with recombinant BirA (site not stated))
T2 construct: Expressed in E. coli from pET23; N-terminal 6xHis tag removed with caspase 3; also called Biotinylated MAGEB2 full length protein
T2 sequence: T1 sequence

B1: 4G8 (antibody, IgG1, V domains shown)
VH: QEQLVESGGGLVQPEGSLTLTCAASGFSFSSSYFMCWVRQAPGKGLEWIACIAVGSSGSTYYASWAKGRFTISKTSSTTVTLQMTSLTAADTATYFCARVGYDDYGDSDAFDPWGPGTLVTVSS
VL: AAVLTQTPSPVSAAVGGTVTINCQSSKSVYNKNWLSWFQQKPGQPPKLLIYGASTLASGVPSRFKGSGSGTQFTLTISDVQCDDVATYYCAGGYSSSSDTFAFGGGTEVVVK
notes: Rabbit monoclonal IgG1
B2: 1I23 (antibody, IgG1, V domains shown)
VH: QEQLVESGGGLVQPKGSLTLTCAASGFSFSSSYFMCWVRQAPGKGLEWIACIGSGSSAISTFYASWAQGRFTISKTSSTTVTLQMTSLTAADTATYFCARVGYDDYGDSDAFDPWGPGTLVTVSS
VL: B1 VL with T20S, N22S, V85A
notes: Rabbit monoclonal IgG1
B3: 4A7 (antibody, IgG1, V domains shown)
VH: B1 VH with A53G, S56G, S64N, G101A, Y105D
VL: B1 VL with T20S, N22S, D79G, V85A
notes: Rabbit monoclonal IgG1
B4: 1J16 (antibody, IgG1, V domains shown)
VH: QSLEESGGGLVQPEGSLTVTCTAFGVTLTNYYICWVRQAPGKGLEWIGCIDNINGRTYYASWAKGRFTISKTSSTTGTLQMTSLTAADTATYFCARSLATPLWGPGTLVTVSS
VL: DIVMTQTPASVEAAVGGTVTIKCQASQSISSYLAWYHQKPGQPPKLLIYAASTLASGVPSRFEGSGSGTQFTLTISDLECADAATYYCQSYDDSRSSSFFYAFGGGTEVVVK
notes: Rabbit monoclonal IgG1
B5: 1H24 (antibody, IgG1, V domains shown)
VH: B4 VH with V19L, F24S, V26F, T29N, G48A, I53S, G77V, A99S
VL: B4 VL with A9F, A34S, H37R, A50R, E63K, R95S, S97N, S98N, A102G, K112R
notes: Rabbit monoclonal IgG1
B6: 1G24 (antibody, IgG1, V domains shown)
VH: B4 VH with V19L, F24S, V26F, T29N, G48A, I53A, S61N, G77V
VL: DIVMTQTPASVEAAVGGTVTIKCQASESIGNALAWYQQKPGQPPSLLIYRASTLASGIPSRVKGSGSGTQFTLTISDLECADAATYYCQSYDDSSSSSFFYAFGGGTEVVVK
notes: Rabbit monoclonal IgG1
B7: 4A15 (antibody, IgG1, V domains shown)
VH: B4 VH with V19L, F24S, I53V, T72A
VL: B4 VL with S28N, S30N, H37Q, A50R, E63K, Q70E, S97I
notes: Rabbit monoclonal IgG1
B8: 1D2 (antibody, IgG1, V domains shown)
VH: B4 VH with V19L, F24S, V26F, T29N, G48A, I53V, K71R, G77V, A99S
VL: DIVMTQTPFSVEAAVGGTVTIKCQASQSISSYLSWYQQKPGQPPKLLIYRASPLASGVPSRFKGSGSGTQFTLTISDLECADAATYYCQSYDDSSSNNFFYGFGGGTEVVVR
notes: Rabbit monoclonal IgG1
B9: 1C18 (antibody, IgG1, V domains shown)
VH: B4 VH with V19L, F24S, V26F, G48A, I53A, S61T, G77V, T82P, A99S, P101N
VL: B8 VL with F9A, Y32W, I48L, S52T, P53T, N97S, G102A
notes: Rabbit monoclonal IgG1
B10: 7H4 (antibody, IgG1, V domains shown)
VH: QSLEESGGGLVKPGASLTLTCKASGSDFRSYYYICWVRQAPGKGLEWVACIGGGNTDATAYARWAKGRFTISKTSATTVALQMTSLTAADTATYFCVRGGPDNNVQFNLWGPGTLVTVSS
VL: QAVVTQTPSSVSAAVGGTVTISCQSSQSVYSNNLLSWYQQKPGQPPKLLIYKASTLASGVPSRLKGSGSGTQFTLTISEVQCDDAATYYCQGYYSGVIYMFGGGTEVVVK
notes: Rabbit monoclonal IgG1
B11: 7B20 (antibody, IgG1, V domains shown)
VH: B10 VH with F28L, R29S, Y31A, V37I, G54V, T56R, D57V, R63T, A76S, A80T
VL: B10 VL with Q1A, A2Q, V4L, S9A, N32S, N33D, L64F, V80L, I98V, M100I
notes: Rabbit monoclonal IgG1
B12: 1H17 (antibody, V domains shown)
VH: QEQLVESGGGLVKPGASLTLTCKASGFSFSSGQLMCWVRQAPGKGLEWIACIGSGSNAISTFYASWAQGRFTISKSSSTTVTLQLTSLTAADTATYFCARVGSDDYGDSDVFDPWGPGTLVTVSS
VL: AAVLTQTPSPVSAAVGGTVSASCQSSKSVYNKNWLSWFQQKPGQPPKLLIYGASTLASGVPSRFKGSGSGTQFTLTISDVQCDDAATYYCAGGYSSSSDTFAFGGGTEVVVKG
B13: 5I9 (antibody, IgG1, V domains shown)
VH: QSLEESGGRLVTPGGPLTLTCTVSGFSLSSYDMSWVRQAPGKGLEWIGYIATDGRPYYASWAKGRFTISKPSSTTVDLKITSPTTEDTATYFCVRGGYAGGLWGPGTLVTVSS
VL: AAVLTQTPSPVSAAVGGTVSISCQSSKSVYNNNWLAWYQQKPGQRPKLLIYDASTLDSGVSSRFKGSGSGTQFTLTISDVQCDDGATYYCVGGYSSRSDNGFGGGTEVVVK
notes: Rabbit monoclonal IgG1
B14: 7F15 (antibody, IgG1, V domains shown)
VH: QEQLKESGGGLVAPGGTLTLTCAVSGFSLSSYNMGWVRQAPGEGLEYIGIIGASDSALYASWAKGRFTISKTSTTVDLKITSPTTEDTATYFCARGGLGLSTGFALWGPGTLVTVSS
VL: AAVLTQTPSPVSAAVGGTVSISCQSSQSVWHNDYLSWYQQKPGQPPKLLIYGASTLASGVPSRFKGSGSGTQFSLTISGVQCDDAATYYCAGGYGRSSENGFGGGTEVVVK
notes: Rabbit monoclonal IgG1
B15: 7M5 (antibody, IgG1, V domains shown)
VH: QSLEESGGRLVTPGGSLTLTCTVSGIDLSSHAMIWVRQAPGEGLEWIGTIGSRDTIYYASWAKGRFTISKTSSTTMDLKMTSLTIEDTATYFCVRNALWGPGTLVTVSS
VL: DVVMTQTPASVSEPVGGTVTIKCQASQSIRNELFWWQQKPGQPPKLLIYAASKLASGVPSRFSGSGSGTEFTLTISDLECADAATYYCQCSYVSSSGTYGNVFGGGTEVVVK
notes: Rabbit monoclonal IgG1

Each binder was assayed against T1, Human MAGEB2 (Melanoma-associated …) (assay: IHC, antibody supernatant on FFPE CHO cells transfected with human MAGEB2).
Excerpt: Negative control cells included parental Chinese hamster ovary (CHO) cells, CHO cells stably transfected with mCherry Vector Control (minus Myc/DDK tags), CHO cells stably transfected with mCherry-human DCAF4L2 (plus Myc/DDK tags). The cross-reactivity control cells included CHO cells transfected with mCherry Vector Control (plus Myc/DDK tags) with one of the human MAGE-B or MAGE-A family members (MAGEA1, MAGEA2, MAGEA3, MAGEA4, MAGEA5, MAGEA6, MAGEA8, MAGEA9, MAGEA11, MAGEA12, MAGEB1, MAGEB3, MAGEB4, MAGEB5, MAGEB6, MAGEB10, MAGEB16, MAGEB17, MAGEB18). Positive control cell lines included CHO cells transfected with mCherry Vector (plus Myc/DDK tags) with human MAGE-B2 or CHO cells transfected with mCherry Vector (open reading frame (ORF); minus Myc/DDK tags) with human MAGEB2, and thirteen human cancer cell lines with known endogenous RNA expression level of MAGEB2 (U266B1, T98G, KMM-1, U20S, CFPAC-1, SCaBER, UACC-257, CFPAC-1, VMRC-LCD, NCI-H1703, UM-UC-3, NCI-H1395, NCIH82).
FFPE samples were sectioned at 4 μm and mounted on positive charged glass slides. After mounting, paraffin sections were air-dried at room temperature. FFPE TMA samples were received as freshly sectioned and mounted on glass slides. The fully automated IHC assay was performed on a Discovery Ultra Stainer (Ventana Medical Systems, Tucson, AZ) using Ventana Anti-Rabbit HQ (cat #760-4815), Ventana Anti-HQ HRP (cat #760-4820), and Ventana Antibody Diluent with Casein (cat #760-219) (Ventana Medical Systems, Tucson, AZ). The slides were baked on the Discovery Ultra Stainer at 60° C. for 8 minutes, de-paraffinized with Ventana Discovery wash (cat #950-510) for 3 cycles (8 minutes each) at 69° C., and underwent cell conditioning (target retrieval) at 95° C. for 16 minutes (for cell arrays) or 32 minutes (tissues or TMAs) in CC1 buffer (cat #950-500). Following this, slides were incubated with Background Sniper (cat #BS966M, Biocare Medical, Pacheco, CA) in a Ventana Option Prep kit (cat #771-751) for 28 minutes, incubated with CM inhibitor (a part of the Ventana DAB kit cat #760-159) for 12 minutes, and incubated for 1 h at RT with MAGE-B2 antibody diluted with Ventana diluent with Casein in a Ventana Prep kit (cat #770-001) (working concentration at 0.1 μg/ml for cell pellet, or 1-5 ug/ml for tissues) or with a matched concentration of isotype control Rabbit IgG1 antibody.

Binding result, binds:
B1
B2
B3
B4
B5
B6
B7
B8
B9
B10
B11
B12
B13
B14
B15

Each binder was assayed against T2, huMAGEB2(1-319), biotinylated full … (assay: limited antigen FACS; biotinylated full length MAGEB2 on LumAvidin beads; B-cell supernatant).
Method: Biotinylated MAGEB2 full length protein was titrated 1:2 across 6 different limited antigen concentrations and then coated onto six different LumAvidin beads in FACS buffer [1×PBS+2% fetal bovine serum (Hyclone Cat No. SH30396.03)] for 30 minutes at room temperature in the dark. The beads were then washed twice in FACS buffer by centrifugation for 2 min at 3500 RPM. The coated beads were resuspended and pooled together (6-plex) and added to the rabbit B-cell supernatants at a 1:2 final dilution onto Corning 3897 96 well V-bottom polystyrene plates and incubated overnight at room temperature in the dark. […] A final wash was done before plates were read on the iQue FACS machine with Intellicyte autosampler to obtain flow cytometry measurements according to the manufacturer's recommendations; data analysis was done on Intellicyt ForeCyt® Enterprise Client Edition 6.2 (R3).

Binding result, binds:
B1
B2
B3
B4
B5
B6
B7
B8
B9
B10
B11
B12
B13
B14
B15
